Test results: patent US20110136145A1, “METHODS FOR PROMOTING FUSION AND REPROGRAMMING OF SOMATIC CELLS” (THE JOHNS HOPKINS UNIVERSITY, priority 2008, published 2011)

Assays:
[1] = tested on: ESC-induced Oct4-GFP re-activation in NSCs; experiment: CLEAR analysis of ESC fusion-induced reprogramming (PEG-induced fusion of Z-Red ESCs and CIPOE NSCs, flow cytometry)
Description: CLEAR strategy uses engineered ESCs and NSCs for monitoring fusion-induced DsRed expression and reprogramming-induced GFP expression (FIG. 1A). Z-Red ESCs were derived from a clonal ESC line containing one copy of a transgene (CAG-loxP-LacZ::neomycin-polyA-loxP-DsRed.T3) as a Cre recombination excision reporter.
Adult NSCs were isolated from Oct4-GFP (GOF 18-A PE-EGFP) transgenic mice and transduced by retroviruses to stably co-express Cre and the puromycin resistance gene through a bicistronic cassette (termed CIPOE NSCs hereafter). Somatic cells with Oct4-GFP transgene integration have been used previously to investigate reprogramming, in which the regulatory elements of Oct4 direct reliable GFP reactivation from somatic genomes in reprogrammed ESC-like hybrid cells (also see FIG. 3). Multiple CIPOE NSC lines from Oct4-GFP transgenic mice were established, characterized and used for subsequent cell fusion experiments.
To quantitatively analyze the reprogramming-induced Oct4-GFP re-activation, dual-color flow cytometry was used to display and measure the cell population that underwent PEG-induced cell fusion. Viable cells were identified by their typical FSC (Forward Scatter) and SSC (Side Scatter) properties. To ensure appropriate gating for […] and DsRed+ events and to compensate the spectrum crossover of GFP and DsRed signals, the system was first calibrated using multiple control cells, including Z-Red ESCs, CIPOE NSCs, mixed Z-Red ESCs and CIPOE NSCs without PEG. Z-Red ESCs transfected with a constitutive Cre expression plasmid, and CIPOE NSCs transfected with a Cre excision reporter plasmid (FIG. 4A).
ESC fusion-induced Oct4 re-activation from NSCs was quantitatively measured using two different approaches. In the first approach, the reprogramming frequency (Rf) is determined by the ratio of GFP DsRed+ cells to total DsRed+ cells. […] In the second approach, the reprogramming efficacy is determined by the distribution of GFP fluorescence intensities of individual cells from the DsRed+ population (FIG. 4C). This analysis provides a measurement of the efficiency of Oct4-GFP re-activation in NSCs after successful fusion.
The protocol was optimized for PEG-induced cell fusion between ESCs and NSCs to achieve maximum efficiency and minimal toxicity. Equal numbers of ESCs and NSCs were mixed thoroughly and spun down in PBS. The pellet was loosened by gentle tapping and 50% PEG (500 μl for 1×10^7 cells) was added to the cells continuously over one minute while swirling the mixture in 37° C. water bath Next, 2 ml of ESC medium was layered on top of PEG-cell mixture and one-minute incubation in 37° C., followed by low-speed centrifugation at 1,800 rpm for 5 minutes. After removing the supernatant, the pellet was incubated with ESC medium for one minute, washed, resuspended and plated onto gelatin-coated dishes and grown in Dubelcco's Modified Eagle's Medium, 15% fetal bovine serum supplemented with mouse leukemia inhibitory factor (ESGRO), 0.1 mM nonessential amino acids, 0.1 mM β-mercaptoethanol, and 50 U/ml penicillin/50 μg/ml streptomycin (ESC medium). […] The following pharmacological inhibitors were applied in ESC-fusion experiments only during the first 48 hours after fusion. DMOG (5-10 μM; BioMol), Anacardic acid (5-10 μM; Calbiochem), Trichostatin A (TSA, 100 nM-1 μM; Sigma) and azidothymidine (AZT, 1-5 μM; Sigma).

G9a = experiment: Quantitative real-time PCR of G9a expression in CIPOE NSCs; format: cell-based, mouse; settings: CIPOE cells
Description: Shown is a summary of quantitative real-time PCR analysis of the expression level of G9a in Z-Red ESCs, CIPOE NSCs, CIPOE NSCs with control shRNA or G9a-targeted shRNA. The mRNA abundance was normalized to the levels in CIPOE cells. Values represent mean+SEM (n=3; * P<0.01, Students t-test). […] Shown are results from cell fusion experiments between Z-Red and CIPOE, CIPOE-shControl, or CIPOE-shG9a cells. Values represent mean+SEM (n=3; *- P<0.01 Students t-test). (C) Summary of reprogramming efficacy. Cumulative distribution plots of DsRed+ population with graded GFP fluorescence intensities are shown for comparison of the reprogramming efficacy of Z-Red ESCs with CIPOE-shControl, or CIPOE-shG9a cells at day 2 and day 4 after cell fusion. Values represent mean±SEM (n=3; *: P<0.01, Kolmogorov-Smirnov test).
Next, the molecular identities of epigenetic factors that play critical roles in reprogramming were examined. […] Using a previously validated small short-hairpin RNA (shRNA) for mouse G9a, the expression of endogenous G9a was knocked down in CIPOE cells, as shown by quantitative real-time PCR (FIG. 7A). […]
(§1) For real-time quantitative PCR, total RNAs were purified using RNAeasy kit (Qiagen) and converted to cDNA by SuperScript III (Invitrogen). Triplicate cDNA samples were added to a SYBR-green based quantitative PCR reaction mix and analyzed using the ddCt methods. […]

Oct4 = experiment: Conventional RT-PCR and quantitative PCR of endogenous Oct4 expression in adult NSCs; format: cell-based, mouse
Procedure: (§2) (A) is a schematic drawing of Oct4 promoter with 16 CpG sites, which are located between the proximal enhancer and exon 1. Bisulfite sequencing analysis is performed for genomic DNA extracted from CIPOE, Z-Red ESCs, fusion clone B3, CIPOE-shControl and CIPOE-shG9a NSCs. (B, C) show conventional RT-PCR (B) and quantitative real-time PCR(C) are used to compare the mRNA abundance of Oct4 in CIPOE, Z-Red ESCs, fusion clone B3, CIPOE-shControl and CIPOE-shG9a NSCs. Data represent mean+SEM. (n=3, *. P<0.01, Student's t-test).
Reprogramming requires erasure of the somatic epigenoine including both histone and DNA modification. Next it was further tested whether DNA demethylation of pluripotency gene Oct4 induced by ESC-mediated reprogramming may partially account for the facilitating effects of histone demethylation during reprogramming. […] The impact of G9a knockdown on endogenous Oct4 expression was also evaluated. […] The mRNA abundance of Oct4 expression measured in bulk adult NSC cultures with G9a knocking-down reached around 10% of that in ESCs, while little expression was detected in CIPOE or CIPOE cells expressing the control shRNA.
as §1

Oct4 promoter = experiment: Bisulfite sequencing of Oct4 promoter in CIPOE NSCs; format: cell-based, mouse; settings: independent of cell fusion
Procedure: as §2
Reprogramming requires erasure of the somatic epigenoine including both histone and DNA modification. […] The impact of G9a knockdown on endogenous Oct4 expression was also evaluated. […] The mRNA abundance of Oct4 expression measured in bulk adult NSC cultures with G9a knocking-down reached around 10% of that in ESCs, while little expression was detected in CIPOE or CIPOE cells expressing the control shRNA.
For bisulfite genomic sequencing, 500 ng of genomic DNA from each sample was digested by EcoRI overnight, followed by boiling for 5 min and incubation in 0.3 M NaOH at 50° C. for 15 min. […] Efficiency of bisulfite conversion was monitored by the presence of unconverted C residues in non-CpG regions, which were only seldom seen. […]

[2] = 100 nM, applied only during the first 48 hours after fusion

In the case of `N[C@@H]1C[C@H]1c1ccccc1` (racemic) [Tranylcypromine], the “Effects (on reprogramming)” value ([1]; 2 μM, applied only during the first 48 hours after fusion) is reported as “mild reprogramming deficit”.

`CC(/C=C/C(=O)NO)=C\[C@@H](C)C(=O)c1ccc(N(C)C)cc1` [TSA, Trichostatin A] was tested, and the “Effects (on reprogramming)” value [1, 2] was “pro-differentiation” and the “Effects (toxicity to the cells)” value [1, 2] was “toxic”.

In the case of `CCCCCCCCCCCCCCCc1cccc(O)c1C(=O)O` [Anacardic acid], the “Effects (on reprogramming)” value ([1]; 5 μM, applied only during the first 48 hours after fusion) is reported as “mild reprogramming deficit;”.

B1: shRNA-G9a: short hairpin RNA for mouse G9a, …, cloned into retroviral vector pUEG (nucleic acid, listed as Mus musculus)
chain: TCTATCGCCTTGAGCCGTTGGCCTTCAGATAGGCTGATTTGGTTGGTGTCTTGCTCTTTCTGTGGGAAGGCTGCGGCTCACTTCCTTCTGACTTCTTGATAATTTTGCATTAGACATTTAACTCTTCTTTCTATGATCTTTCCTTCTAGACACTGAGTTTTTTGGTTGTTGCCTAAAACCTTTTCAGAAATCCCTTCCCTCGCCATCACACTGACATGAGTGTGGGTCTTCCTGGTCCCCACAGTTTGCCTAGTTCTGAGGAAGCATCGAATTCTGGGAACGCCTCATCAATGCCTGCAGTTTTTCATCCCGAGAACTATTCTTGCTTACAAGGGTCTGCTACTGAGATGCTCTGCACAGAGGCTGCCTCTCCTCGCCCTTCCTCTGAAGACCTGCCTCTTCAAGGCAGCCCTGATTCTTCTACCAGTCCCAAACAAAAGCTCTCAAGTCCTGAGGCTGACAAGGGCCCTGAGGAGGAGGAGAACAAGGTCCTTGCCAGGAAGCAGAAGATGCGGACTGTGTTCTCTCAGGCCCAGCTGTGTGCACTCAAGGACAGGTTTCAGAAGCAGAAGTACCTCAGCCTCCAGCAGATGCAAGAACTCTCCTCCATTCTGAACCTGAGCTATAAGCAGGTTAAGACCTGGTTTCAAAACCAAAGGATGAAGTGCAAGCGGTGGCAGAAAAACCAGTGGTTGAAGACTAGCAATGGTCTGATTCAGAAGGGCTCAGCACCAGTGGAGTATCCCAGCATCCATTGCAGCTATCCCCAGGGCTATCTGGTGAACGCATCTGGAAGCCTTTCCATGTGGGGCAGCCAGACTTGGACCAACCCAACTTGGAGCAGCCAGACCTGGACCAACCCAACTTGGAACAACCAGACCTGGACCAACCCAACTTGGAGCAGCCAGGCCTGGACCGCTCAGTCCTGGAACGGCCAGCCTTGGAATGCTGCTCCGCTCCATAACTTCGGGGAGGACTTTCTGCAGCCTTACGTACAGTTGCAGCAAAACTTCTCTGCCAGTGATTTGGAGGTGAATTTGGAAGCCACTAGGGAAAGCCATGCGCATTTTAGCACCCCACAAGCCTTGGAATTATTCCTGAACTACTCTGTGACTCCACCAGGTGAAATATGAGACTTACGCAACATCTGGGCTTAAAGTCAGGGCAAAGCCAGGTTCCTTCCTTCTTCCAAATATTTTCATATTTTTTTTAAAGATTTATTTATTCATTATATGTAAGTACACTGTAGCTGTCTTCAGACACTCCAGAAGAGGGCGTCAGATCTTGTTACGTATGGTTGTGAGCCACCATGTGGTTGCTGGGATTTGAACTCCTGACCTTCGGAAGAGCAGTCGG
modifications: cloned into retroviral vector pUEG
notes: short hairpin RNA for mouse G9a, …, cloned into retroviral vector pUEG
With B1 the “expression of endogenous G9a” value (G9a) was “knocked down”, the “expression of endogenous Oct4” value (Oct4; adult NSCs, conventional and quantitative PCR) was “partially re-activated” and the “mRNA abundance of Oct4 expression” value (Oct4; bulk adult NSC cultures, relative to that in ESCs) was “around 10%”. For the same molecule, the “increase in the reprogramming frequency” value ([1]; day 2, expressed in CIPOE NSCs) was 110%, the “efficacy of ESC-induced Oct4-GFP re-activation” value ([1]; day 2 and day 4, expressed in CIPOE NSCs) was “significantly enhanced” and the “increase in the reprogramming frequency” value ([1]; day 4, expressed in CIPOE NSCs) was 26%. For the same molecule, the “DNA methylation in Oct4 promoter regions” value (Oct4 promoter) was “considerably decreased”.
